The text below walks through data of US20030228608, “Method to enhance homologous recombination” (Promega Corporation, published 2003).

Series [1] has as its target T1, RecA (Thermotoga maritima, UniProt P36203 P36203:1-356).
T1 sequence: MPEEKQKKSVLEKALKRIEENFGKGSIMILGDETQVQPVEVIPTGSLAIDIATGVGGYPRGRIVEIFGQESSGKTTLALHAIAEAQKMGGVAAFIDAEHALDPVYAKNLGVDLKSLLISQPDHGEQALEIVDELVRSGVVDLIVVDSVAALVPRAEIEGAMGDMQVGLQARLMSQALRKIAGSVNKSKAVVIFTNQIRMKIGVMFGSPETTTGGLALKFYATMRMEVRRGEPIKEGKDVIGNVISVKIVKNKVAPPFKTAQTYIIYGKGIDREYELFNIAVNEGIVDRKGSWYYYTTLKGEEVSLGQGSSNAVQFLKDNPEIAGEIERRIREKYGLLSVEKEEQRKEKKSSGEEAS
The series can be described thus: EMSA; 75 C, 2 mM Mg acetate; slower assembly than 91-mer; more efficient than E. coli RecA. As to conditions: tags: untagged; expressed in E. coli; label: 5' fluorescein. As for the experimental part: To detect recombinase coating of a substrate (nucleoprotein assembly), a gel shift assay with a labeled ssDNA may be employed. For example, 0.1 μM of a fluorescein-tagged 91-mer oligonucleotide (F-[…] […] GAT; SEQ ID NO: 1) was used as a substrate for coating by RecA. The coating buffer for E. coli RecA was 25 mM Tris acetate, pH 7.85, 15 mM potassium glutamate (K-Glu), 5 mM Mg acetate, and 2.5 mM DTT. The coating buffer for Thermotoga RecA was 25 mM Tris acetate, pH 8.0, 15 mM K-Glu, 2 mM Mg acetate, 2.5 mM DTT and 0.1% Triton. The coating buffer also included ATPyS (3 mM), or dATP and ATPγS at a ratio of 10:1 (3 mM and 0.3 mM, respectively). RecA was then added to the coating buffer containing the substrate at a ratio of 4 μM RecA for 10 μM of base. The E. coli RecA coating reaction was incubated for up to 60 minutes at 42° C. and the Thermotoga RecA coating reaction was incubated for up to 60 minutes at 75° C. (or 65° C.), although other temperatures may be employed. The tagged oligonucleotide was visualized and quantified using a FluorImager-SI and ImageQuant Software. […]
(In EMSA bound probe runs differently from free probe, usually more slowly.)

Series [2] addresses T1, RecA. The series can be described thus: EMSA; nucleoprotein assembly; 75 C, 2 mM Mg acetate, ATPgammaS or dATP/ATPgammaS; more efficient than E. coli RecA. As to conditions: tags: untagged; expressed in E. coli; label: 5' fluorescein. As for the experimental part: To detect recombinase coating of a substrate (nucleoprotein assembly), a gel shift assay with a labeled ssDNA may be employed. For example, 0.1 μM of a fluorescein-tagged 91-mer oligonucleotide (F-[…] […] GAT; SEQ ID NO: 1) was used as a substrate for coating by RecA. The coating buffer for E. coli RecA was 25 mM Tris acetate, pH 7.85, 15 mM potassium glutamate (K-Glu), 5 mM Mg acetate, and 2.5 mM DTT. The coating buffer for Thermotoga RecA was 25 mM Tris acetate, pH 8.0, 15 mM K-Glu, 2 mM Mg acetate, 2.5 mM DTT and 0.1% Triton. The coating buffer also included ATPyS (3 mM), or dATP and ATPγS at a ratio of 10:1 (3 mM and 0.3 mM, respectively). RecA was then added to the coating buffer containing the substrate at a ratio of 4 μM RecA for 10 μM of base. The E. coli RecA coating reaction was incubated for up to 60 minutes at 42° C. and the Thermotoga RecA coating reaction was incubated for up to 60 minutes at 75° C. (or 65° C.), although other temperatures may be employed. The tagged oligonucleotide was visualized and quantified using a FluorImager-SI and ImageQuant Software.

B1: 51-mer (ssDNA)
DNA: CAGTCGTTGCTGATTGGCGTTGCCTAATCCAGTCTGGCCCTGCACGCGCCG
modifications: [5'-F label (position 1)]
For the molecule B1, the binding result in series [1] is “binds”.

B2: 91-mer (ssDNA)
DNA: ACAACAACTGGCGGGCAAACAGTCGTTGCTGATTGGCGTTGCCTAATCCAGTCTGGCCCTGCACGCGCCGTCGCAAATTGTCGCGGCGAT
modifications: [1 (5'-fluorescein)]
In the case of B2, in series [2], the binding result is “binds”. GCTGATTGGCGTTGCCTAATCCAGTCTGGCCCTGC (ssDNA, [5'-F label (position 1)]) [35-mer]: in series [1], the binding result is listed as “binds”.
